Test results: patent US20200385463A1 (LANOVA MEDICINES, published 2020)

The binders below were run against Human claudin 18.2 (CLDN18.2), wild-type (human) (assay: cell-based or functional assay).

| EC50 (pM), ADCC Reporter Bioassay (luciferase; Jurkat effector cells with FcγRIIIa V158 and NFAT response element) | Binder |
| --- | --- |
| 15.9 pM | 78E8G9G6 chimeric antibody (antibody, V domains shown) VH: QVQLKESGPGLVAPSQSLSITCTVSGFSLISYGVHWVRQPPGKGLEWLGVIWAGGRTNYNSALMSRLSISKDNSKSQVFLKMNSLQTYDTAMYYCARDRYGGNSLDYWGQGTSVTVSS VL: DIVMTQSPSSLTVTAGEKVTMNCRSIQSLLNSGNQKNYLSWYQQKPGQPPKLLIYWASTRESGVPDRFTGSGSGTDFTLTIRSVLDEDLAVYYCQNSYSYPFTFGSGTKLEMK |
| 36.8 pM | 12F1F4 chimeric antibody (antibody, V domains shown) VH: QVQLKESGPGLVAPSQSLSITCTVSGFSLINYGVSWVRQPPGKGLEWLGVIWGDGNTNYQSALRSRLSIRKDTSKSQVFLKLNSVHTDGTATYYCAKVGRGNAMDHWGQGISVIVSS VL: DIVMTQSPSSLTVTARERVSMTCKSSQSLFNSGNQRNYLTWYQQKPGQPPKLLIYWSSTRESGVPDRFTGSGSGTDFTLTISSVQAEDLAIYFCQNNYYYPFTFGSGTKLEIK |
| 126 pM | 64G11B4 chimeric antibody (antibody, V domains shown) VH: QVQLHQSGTELVRPGTSVKVSCKASGYAFTNYLLEWVKQRPGQGLEWIGEINPGNGGSNYNEKFKGKATLTADKSSSTAYMQLSSLTSVDSAVYFCARIYYGNSFAYWGQGTLVTVSA VL: DIVMTQSPSSLTVTAGEKVTMNCKSSQSLLNSGNQRNYLTWYQQKPGQPPKLLIYWASTRESGVPDRFTGSGSGTDFTLTISSVQADDLAVYYCQNDYFYPFTFGAGTNLELK |
| 22.2 pM | 4F11E2 chimeric antibody (antibody, V domains shown) VH: DVQLVESGGGLVQPGGSRKLSCAASGFTFSTFGMHWVRQAPEKGLEWVAYITSGNSPIYFTDTVKGRFTISRDNPKNTLFLQMTSLGSEDTAVYYCARSSYYGNSMDYWGQGTSVTVSS VL: DIVMTQSPSSLTVTAGEKVTLTCRSSQSLLNSGNRKNYLTWYQQIPGQPPKLLIYWASTRESGVPDRFTGSGSGTYFTLTISSVQAEDLAVYYCQNAYSYPFTFGSGTKLEKK |
| 79.5 pM | 103F6D3 chimeric antibody (antibody, V domains shown) VH: QVQLQQSGAELARPGASVKMSCKASGYTFPTYSIHWLKQGPGQGLEWIGYINPNTIYTNYNQKFKYKTTLTADKSSSTAYIQLSSLTSDDSAVYYCAREGYGRGNAMDYWGQGTSVTVSS VL: DIVMTQSPSSQTVTAGEKVTLSCRSSQSLLNGGNQKNYLTWYQQKPGQPPKLLIYWASTRESGVPDRFTGSGSGTYFTFTISSVQAEDLAVYYCQNAYFYPFTFGAGTKLELK |
| 5.81 pM | 120B7B2 chimeric antibody (antibody, V domains shown) VH: EVQLQQSGPELVKPGASVKMSCKASGYTFTGYIIQWMKQKPGLGLEWIGFINPYNDGTKYNEQFKGKATLTSDKSSNAAYMELSSLTSEDSAVYYCARAYFGNSFAYWGQGTLVTVSA VL: DIVMTQSPSSLTVTAGEKVTMSCKSSQSLLNSGNQKNYLTWYQQRPGQPPKLLMYWASTRESGVPDRFTGSGSGTDFTLTISSGQAEDLAIYFCQNGYYFPFTFGSGTKLETK |
| 46.3 pM | 72C1B6A3 chimeric antibody (antibody, V domains shown) VH: QVQLQQSGGELVKPGASVKMSCKAFGYTFTTYPIEWMKQNHGKSLEWIGNFHPYNDDTKYNEKFKGKAKLTVEKSSSTVYLEVSRLTSDDSAVYYCARRAYGYPYAMDYWGQGTSVTVSS VL: DIVMTQSPSSLTVTAGEKVTMSCKSSQSLLNSGNQKNYLTWYQQRPGQPPKLLIYRASSRESGVPVRFTGSGSGTDFTLTISSVQAEDLAVYYCQNDYIYPYTFGGGTKLEMN |

Molecular target: Human claudin 18.2 (CLDN18.2), wild-type (human)
Test: cell-based or functional assay
Remark: another data set of the same source

| EC50 (pM), ADCC Reporter Bioassay (luciferase, Jurkat effector cells) | Binder |
| --- | --- |
| 414 pM | 4F11E2 -HC N55Q-LC S32A (antibody, V domains shown) VH: EVQLVESGGGLVQPGGSLRLSCAASGFTFSTFGMHWVRQAPGKGLEWVSYITSGQSPIYFTDTVKGRFTISRDNAKNSLYLQMNSLRAEDTAVYYCARSSYYGNSMDYWGQGTLVTVSS VL: DIVMTQSPDSLAVSLGERATINCRSSQSLLNAGNRKNYLTWYQQKPGQPPKLLIYWASTRESGVPDRFSGSGSGTDFTLTISSLQAEDVAVYYCQNAYSYPFTFGGGTKLEIK |
| 148 pM | 4F11E2 (HC N55E/LC S32A) (antibody, V domains shown) VH: EVQLVESGGGLVQPGGSLRLSCAASGFTFSTFGMHWVRQAPGKGLEWVSYITSGESPIYFTDTVKGRFTISRDNAKNSLYLQMNSLRAEDTAVYYCARSSYYGNSMDYWGQGTLVTVSS VL: DIVMTQSPDSLAVSLGERATINCRSSQSLLNAGNRKNYLTWYQQKPGQPPKLLIYWASTRESGVPDRFSGSGSGTDFTLTISSLQAEDVAVYYCQNAYSYPFTFGGGTKLEIK |
| 1650 pM | 72C1B6A3-HC WT-LC N31E (antibody, V domains shown) VH: QVQLVQSGAEVKKPGASVKVSCKASGYTFTTYPIEWVRQAPGQRLEWMGNFHPYNDDTKYNEKFKGRVTITRDTSASTAYMELSSLRSEDTAVYYCARRAYGYPYAMDYWGQGTLVTVSS VL: DIVMTQSPDSLAVSLGERATINCKSSQSLLESGNQKNYLTWYQQKPGQPPKLLIYRASSRESGVPDRFSGSGSGTDFTLTISSLQAEDVAVYYCQNDYIYPYTFGGGTKLEIK |
| 493 pM | 120B7B2-HC G57D&S104A-LC-N96E&N31E (antibody, V domains shown) VH: QVQLVQSGAEVKKPGASVKVSCKASGYTFTGYIIQWVRQAPGQRLEWMGFINPYNDDTKYNEQFKGRVTITRDTSASTAYMELSSLRSEDTAVYYCARAYFGNAFAYWGQGTLVTVSS VL: DIVMTQSPDSLAVSLGERATINCKSSQSLLESGNQKNYLTWYQQKPGQPPKLLIYWASTRESGVPDRFSGSGSGTDFTLTISSLQAEDVAVYYCQEGYYFPFTFGGGTKLEIK |
| 114 pM | 120B7B2 (HC G57D S104A/LC S32A G97A) (antibody, V domains shown) VH: QVQLVQSGAEVKKPGASVKVSCKASGYTFTGYIIQWVRQAPGQRLEWMGFINPYNDDTKYNEQFKGRVTITRDTSASTAYMELSSLRSEDTAVYYCARAYFGNAFAYWGQGTLVTVSS VL: DIVMTQSPDSLAVSLGERATINCKSSQSLLNAGNQKNYLTWYQQKPGQPPKLLIYWASTRESGVPDRFSGSGSGTDFTLTISSLQAEDVAVYYCQNAYYFPFTFGGGTKLEIK |
| 190 pM | 72C1B6A3 (HC WT/LC S32A) (antibody, V domains shown) VH: QVQLVQSGAEVKKPGASVKVSCKASGYTFTTYPIEWVRQAPGQRLEWMGNFHPYNDDTKYNEKFKGRVTITRDTSASTAYMELSSLRSEDTAVYYCARRAYGYPYAMDYWGQGTLVTVSS VL: DIVMTQSPDSLAVSLGERATINCKSSQSLLNAGNQKNYLTWYQQKPGQPPKLLIYRASSRESGVPDRFSGSGSGTDFTLTISSLQAEDVAVYYCQNDYIYPYTFGGGTKLEIK |
| 238 pM | 4F11E2 -HC N55Q-LC N31E (antibody, V domains shown) VH: EVQLVESGGGLVQPGGSLRLSCAASGFTFSTFGMHWVRQAPGKGLEWVSYITSGQSPIYFTDTVKGRFTISRDNAKNSLYLQMNSLRAEDTAVYYCARSSYYGNSMDYWGQGTLVTVSS VL: DIVMTQSPDSLAVSLGERATINCRSSQSLLESGNRKNYLTWYQQKPGQPPKLLIYWASTRESGVPDRFSGSGSGTDFTLTISSLQAEDVAVYYCQNAYSYPFTFGGGTKLEIK |
